The text below walks through data of patent US20230349919A1 (Regeneron, published 2023).

The labels stand for the following.
T1: Ole e 1 (olive, UniProt P19963 1-145)
T1 construct: Also used oligonucleotide-barcoded for cell staining; also called olive allergen; negative control allergen
T1 sequence (looked up): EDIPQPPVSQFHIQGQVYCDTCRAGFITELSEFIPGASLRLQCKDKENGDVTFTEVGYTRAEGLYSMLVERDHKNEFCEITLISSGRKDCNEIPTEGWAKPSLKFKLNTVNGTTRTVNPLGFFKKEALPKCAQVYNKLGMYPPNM

T2: Der p 2 (house dust mite, UniProt P49278 18-146)
T2 construct: Also used oligonucleotide-barcoded for cell staining
T2 sequence (looked up): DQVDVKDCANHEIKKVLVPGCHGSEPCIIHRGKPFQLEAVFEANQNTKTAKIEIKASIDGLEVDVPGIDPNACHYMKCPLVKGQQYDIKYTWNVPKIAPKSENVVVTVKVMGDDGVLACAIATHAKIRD

B1: Table 1 Line # 28 antibody (SP_B_cell) (antibody, human IgG4, V domains shown)
VH: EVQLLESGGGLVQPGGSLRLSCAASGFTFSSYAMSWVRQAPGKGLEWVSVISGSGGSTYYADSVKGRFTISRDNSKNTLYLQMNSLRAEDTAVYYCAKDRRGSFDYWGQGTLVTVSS
VL: DIQMTQSPSSVSASVGDRVTITCRASQGISSWFAWYQQKPGKAPKLLIYAASSLLSGVPSRFSGSGSGTDFTLTISSLQPEDFATYYCQQANSFPFTFGPGTKVDFK
notes: Cloned with human IgG4/human Igk constants for Kd; barcode counts are of the source cell's own IgG
B2: Table 1 Line # 29 antibody (SP_B_cell) (antibody, V domains shown)
VH: EVQLLESGGGLVQPGGSLRLSCAASGFTFSSYAMSWVRQAPGKGLEWVSAISGSGGSTYYADSVKGRFTISRDNSKNTLYLQMNSLRAEDTAIYYCARYGNWNYIWGQGTLVTVSS
VL: B1 VL with F33L, L55Q, F96L, P100G, D105E, F106I
B3: Table 1 Line # 3 antibody (BM_Plasma_cell) (antibody, human IgG4, V domains shown)
VH: EVQLVESGGGLVQPGRSLRLSCAASGFTFDDYAMHWVRQVTGKGLEWVSGINWNSGNIGYADSVRGRFTISRDNAKNSLYLQMNSLRAEDTALYYCAKDSGSSWYGYFDLWGRGTLVTVSS
VL: DIQMTQSPSTLSASVGDRVTITCRASQSISRWLAWYQQKPGKAPKFLIYKASSLESGVPSRFSGSGSGTEFTLTISSLQPDDFATYYCQQYNSDSRTFGQGTKVEIK
notes: as for B1
B4: Table 1 Line # 25 antibody (SP_B_cell) (antibody, human IgG4, V domains shown)
VH: EVQLVESGGTVERPGGSLRLSCAASGFTFDDYGMSWVRQAPGKGLEWVSGTSWNGGHIGYADSVKGRFIISRDNAKNSLYLQINSLRVEDTALYYCTRDSTSSWYGVFDFWGQGTLVTVSS
VL: DIQMTQSPSSLSASVGDRVTITCRASQDISINLAWYQQKPGKTPKLLIYAAASTLQSGVPSRFSGSGSGTDFTLTISSLQPEDVATYYCQNYNSAPRTFGQGTKVEIK
notes: as for B1
B5: Table 1 Line # 5 antibody (BM_Plasma_cell) (antibody, V domains shown)
VH: QVQLVQSGAEVKKPGASVKVSCKASGYTFTGYYIYWVRQAPGQGLEWMGWINPNSGGTNYAQKFQGRVTMTRDTSISTVYMELSRLRSDDAAVYYCAKRKRGLDGWGQGTTVTVSS
VL: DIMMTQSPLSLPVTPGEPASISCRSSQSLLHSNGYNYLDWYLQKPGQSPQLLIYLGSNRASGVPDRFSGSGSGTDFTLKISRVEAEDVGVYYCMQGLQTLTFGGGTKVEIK
notes: as for B1
B6: Table 1 Line # 24 antibody (SP_B_cell) (antibody, human IgG4, V domains shown)
VH: EVQLVESGGDLVQPGTSLRLSCAASGFTFDDYAMHWVRQTPGQGLEWVSGINWNSGTIGYADSVKGRFTISRDNAKNSLFLQMNSLRAEDSAFYYCTKDIGGSYYASDFWGQGTLVTVSS
VL: DIQMTQSPSSLSASVGDRVTITCRASQRISTDLNWYQQKSGKAPNLLIYGASSLQSGVPSRFSGSGSGTDFILTISTLQPEDFATYYCQQSYSTPFTFGPGTKVDIK
notes: as for B1
B7: Table 1 Line # 32 antibody (SP_B_cell) (antibody, human IgG4, V domains shown)
VH: EVQLVESGGGLVQPGRSLRLSCAASGFTFDDYAMHWVRQAPGKGLEWVSGVNWNGVSLGYADSVKGRFTISRDNAKNSLYLQMNSLRAEDTAFYYCAKDSGSYHYYYGMDGWGQGTTVTVSS
VL: DIQMTQSPSSLSASVGDRVTITCRASQGIRNDLGWYQQKPGKDPKRLIFAATNLHGGVPSRFSGGVSGTEFTLTISSLQPEDFATYYCLQHNSYPLTFGGGTKVEIK
notes: as for B1
B8: Table 1 Line # 6 antibody (BM_Plasma_cell) (antibody, human IgG4, V domains shown)
VH: EVQLVESGGDLVQPGRSLRLSCAASGFTFDDYAMHWVRQAPGKGLEWVSGISWNGNSLGYVDSVKGRFTVSRDNAKNSLYLQMNSLRAEDTALYYCTKDTGSYHSYYGLDVWGQGTTVTVSS
VL: B7 VL with D43A, F49Y, T52S, N53S, H55P, G56S, G65S, V66G, H91L, S93T
notes: as for B1
B9: Table 1 Line # 26 antibody (SP_B_cell) (antibody, human IgG4, V domains shown)
VH: QVQLQQSGPGLVKPSQTLSLTCAISGDSVSSNIATWNWIRQSPSRGLECLGRTYYRSKWYSDYAVSVKSRITINPDTSKNQFSLQLNSVTPEDTAVYYCARGWNYGYYFDYWGQGTLVTVSS
VL: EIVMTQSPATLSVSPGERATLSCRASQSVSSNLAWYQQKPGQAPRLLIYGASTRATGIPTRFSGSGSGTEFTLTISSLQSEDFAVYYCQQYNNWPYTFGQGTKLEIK
notes: as for B1
B10: Table 1 Line # 21 antibody (SP_B_cell) (antibody, human IgG4, V domains shown)
VH: EVQLVESGGGVVRPGGSLRLSCAASGFTFDDYGMSWVRQAPGKGLEWVSGINWNGGSTGYADSVKGRFTMSRDNAKKSLYLQMNSLRAEDTAFYHCARDDSSSLYGYFQHWGQGTLVTVSS
VL: DIQMTQSPSSLSASVGDRVTITCRASQGISIYLAWYQQKPGKVPKLLIYAASTLQSGVPSRFSGSGSGTDFTLTISSLQPEDVATYYCQNYNSAPRTFGQGTKVEIK
notes: as for B1
B11: Table 1 Line # 12 antibody (BM_Plasma_cell) (antibody, human IgG4, V domains shown)
VH: QVQLVESGGGVVQPGRSLRLSCAASGFTFSSYGMHWVRQAPGKGLEWVSVISYDGSNKYYADSVKGRFTISRDNSKNTLFLQVNSLRAEDTAVYYCAKEGRTGFDYWGQGTLVTVSS
VL: B10 VL with S26R, I31N, Y36F, N90K, R96W
notes: as for B1
B12: IgE mAb 17_2 (antibody, V domains shown)
VH: EVHLQQSGPDLVKPGASVMISCQASGYSFTAYYINWVKQSPEKSLEWIGEINPGSGGVIYNRKFEAKATLIVDKSSNTAFMLLTRLTSEDSAIYYCARKGFYQFDYWGQGTTLTVSS
VL: SVVMTQIPKFLVVSAGDRVTITCKASQSVNDGVFWYQQKTGQSPKLVIYHTSNRYTGVSDRFTGSGYGTEFTFTISAVQSEDLAIYFCQQDYTSPLTFGGGTRLEIK
notes: IgE (IGHE, IGKC) from HDM-exposed mouse, LymphNode
B13: IgE mAb 8_2 (antibody, V domains shown)
VH: QVLLKESGPGLVAPSQSLSITCTVSGFSLTSYGVSWVRQPPGKGLEWLGVIWGDGNTDYHSALISRLSIRKDNSKSQVFLKLNSLQTDDTATYYCAIGSPFAYWGQGTLVTVSA
VL: DVLMTQTPLSLPVSLGDQVSISCRSSQNIVHSTGNTYLEWYLQKPGQSPKLLIFKVSNRLSGVPDRFSGSGSGTDFTLNISRVEAADLGIYSCFQGSHVPFTFGSGTKLEIK
notes: IgE (IGHE, IGKC) from HDM-exposed mouse, BoneMarrow
B14: IgE mAb 13_2 (antibody, V domains shown)
VH: EVQLQQSGPELVKPGASVKISCKASGYTFTDYYMNWVKQSHGKSLEWIGDINPNNGGTSYNQKFKGKATLTVDKSSSTAYMELRSLTSEDSAVYYCAYGPPRGPPWFAYWGQGTLVTVSA
VL: DIVLTQSPASLAVSLGQRATISCRASKSVSTSGYSYMHWYQQKPGQPPKLLIYLASNLESGVPARFSGSGSGTDFTLNIHPVEEEDAATYYCQHSRELPWTFGGGTKLEIK
notes: as for B12

Numbering of substitutions follows the chain as printed.

The first assay concerns the target T3, human IL-4Rα (hIL-4Rα) monomeric protein (human, UniProt P24394 26-232, limits assumed).
T3 construct: also called hIL-4Rα antigen; barcoded hIL-4Rα
In words: Biacore (SPR).
For the molecule B1, the Kd came to 146 nM.
Same read-out and setting: with B2 the figure was 54.8 nM.
Molecule B3 yielded a Kd of 537 nM.
On the same count and under the same terms, with B4 the figure was 97.6 nM; with B5, 23.8 nM; with B6, 207 nM.
Same read-out and setting: with B7 the figure was 58.1 nM; with B8, 136 nM.
B9 registered a Kd of 112 nM.
Still for that read-out and setting: for B10 the value was 177 nM; for B11, 34.5 nM.

The next assay addresses T1, Ole e 1. Description: centered log-ratio of barcode count. From the text:
(§1) The barcoded antigen library was mapped by the CellRanger software to a custom short-read reference that contained the DNA tag sequences of the four barcoded antigens, namely, Der p 1, Der p 2, Der f 1 and Ole e 1. These tag sequences were quantified across all cells and were normalized by taking the centered log-ratio (CLR) per barcoded antigen across each sample capture. In addition, background antigen signal for each barcoded antigen was removed by DSB (Denoised and Scaled by Background). Both the CLR and the DSB normalized values were used to quantify the target antigen signals, namely, those for Der p 1, Der p 2 and Der f 1, against the control signal, namely, that for Ole e 1.
On to B12, for which the Olee1_ab_clr was determined as 0.603.
Still for that read-out and setting: for B13 the value was -1.13; for B14, 0.0287.

Another assay addresses T2, Der p 2. Description: centered log-ratio of barcode count.
Source text: as §1
With B12, the Derp2_ab_clr is 0.58.
Still for that read-out and setting: for B13 the value was 0.655.
On the same count and under the same terms, for B14 the value was 1.62.

In a further assay the target is T3, human IL-4Rα (hIL-4Rα) monomeric protein. In words: Biacore (SPR); negative log10 of Kd.
In turn, B1 registered a negLog10Kd of 6.84.
On to B2, for which the negLog10Kd was 7.26.
On the same count and under the same terms, with B3 the figure was 6.27.
Turning to B4, the negLog10Kd is 7.01.
On the same count and under the same terms, for B5 the value was 7.62; for B6, 6.68; for B7, 7.24.
The same measure, in the same setting: with B8 the figure was 6.87; with B9, 6.95.
Same read-out and setting: for B10 the value was 6.75.
B11: the negLog10Kd was found to be 7.46.

The target in another assay is T2, Der p 2. Description: ELISA, coated Der p2. How it is done:
After selecting allergen-specific antibodies, relative binding to Der p 1, Der p 2, and Der f 1 were quantified by ELISA. […] Specifically, binding microtiter plates were coated with 100 μl of 2 μg/mL of natural Der p 1, Der p 2, Der f 1, and Ole e 1 in PBS overnight at 4′C. IgE antibodies were prepared at a concentration of 1 μg/mL and serially diluted three-fold in PBS with 0.5% w/v BSA. After washing with 0.05% v/v Tween® 20 in PBS and blocking in PBS with 0.5% w/v BSA, 100 μl of the diluted IgE antibodies were transferred to the plates and incubated for one hour at ambient temperature. Subsequently, 100 μL of anti-mouse IgE antibody conjugated to horse-radish peroxidase (HRP) diluted at 1:5000 was added. The plates were then incubated for one hour at ambient temperature, and washed in 0.05% v/v/Tween® 20 in PBS. Subsequently, the HRP substrate 3,3′,5,5′-tetramethylbenzidine (TMB) was added. The reaction was stopped (with 100 μL of sulfuric acid 2.0 N) and optical density values determined using a plate reader at 450 nm.
For B12, the binding result was “no binding (tested: about 6e-9 M (log10 M about -8.25))”.

In the next assay the target is T1, Ole e 1. In words: barcoded-antigen count on source cell.
As to B12, the Olee1_ab_raw is 3 counts.
With B13, the Olee1_ab_raw turned out to be 0 counts.
With B14, the Olee1_ab_raw stood at 1 counts.

The target of another assay is T2, Der p 2. Description: barcoded-antigen count on source cell.
Molecule B12 displayed a Derp2_ab_raw of 6 counts.
In turn, B13 displayed a Derp2_ab_raw of 22 counts.
Still for that read-out and setting: for B14 the value was 46 counts.

In the next assay the target is T3, human IL-4Rα (hIL-4Rα) monomeric protein. Description: barcoded-antigen count on source cell (scRNA-seq).
B1 displayed an REGN560.L15_ab_raw of 9450 counts.
On the same count and under the same terms, for B2 the value was 9190 counts; for B3, 6320 counts; for B4, 10600 counts.
Same read-out and setting: with B5 the figure was 4410 counts; with B6, 10800 counts.
B7 showed an REGN560.L15_ab_raw of 7910 counts.
On the same count and under the same terms, for B8 the value was 4140 counts.
Still for that read-out and setting: for B9 the value was 10400 counts.
The same measure, in the same setting: with B10 the figure was 17400 counts.
As for B11, the REGN560.L15_ab_raw was found to be 3180 counts.

The target in another assay is T2, Der p 2. Description: barcode rank score against control Ole e 1.
With B12, the Derp2_ab_rank was 0.336.
B13 gave a Derp2_ab_rank of 0.837.
In the case of B14, the Derp2_ab_rank stood at 0.858.
